Results as given in US20090233850A1 (PHILADELPHIA HEALTH AND EDUCATION CORPORATION D B A DREXEL …, published 2009).
Where a chain is given by its changes, count along the chain named.

Assays:
[1] = biological target: T1, HIV-1 SF162 gp120 (Clade B) (HIV-1 SF162, UniProt P19550 32-502); test: ELISA, 100 ng gp120 adsorbed on the plate, 50 nM CVN, detection with polyclonal anti-CVN, BSA background subtracted
T1 construct: domain: gp120

[2] = biological target: T2, recombinant monomeric HIV-1 YU2 gp120, produced in Drosophila S2 cells (HIV-1 YU2, UniProt P35961 32-498, limits assumed, glycosylated (high-mannose glycans are the CVN binding sites)); test: competition ELISA on plate-adsorbed YU2 gp120; blocked ligand sCD4 at 0.5 ug/ml, detected with anti-CD4; percent of uninhibited control
T2 construct: domain: gp120

[3] = biological target: T2, recombinant monomeric HIV-1 YU2 gp120, …; test: competition ELISA, adsorbed YU2 gp120, increasing L5 with 2 ug/ml mAb 17b as competitor; inhibition of mAb 17b binding to gp120, ELISA
[4] = biological target: T2, recombinant monomeric HIV-1 YU2 gp120, …; test: ELISA, 100 ng YU2 gp120 adsorbed on the plate, serial dilutions of L5, detection with polyclonal anti-CVN, BSA background subtracted
[5] = biological target: T2, recombinant monomeric HIV-1 YU2 gp120, …; test: competition ELISA on plate-adsorbed YU2 gp120; competitor mAb F105 at a 1:20,000 dilution; percent of control without L5
[6] = biological target: T2, recombinant monomeric HIV-1 YU2 gp120, …; test: competition ELISA on plate-adsorbed YU2 gp120; competitor mAb 2G12 at 50 ug/ml; percent of control without L5
[7] = biological target: T2, recombinant monomeric HIV-1 YU2 gp120, …; test: ELISA, 100 ng YU2 gp120 adsorbed on the plate, serial dilutions of L5-S12p1, detection with polyclonal anti-CVN, BSA background subtracted
Experimental: Error bars indicate standard deviation.
YU2 was adsorbed to a 96-well EIA/RIA plate overnight at 4° C.
Ninety-six well plates (Corning) were coated with either 100 ng of the indicated gp120 or BSA overnight at 4° C. The wells were washed three times with 1×PBS-T (PBS, 0.1% Tween) and non-specific binding blocked with 1% (wt/vol) BSA in PBS. […] After a one hour incubation, the wells were washed and incubated with a 1/2500 dilution of anti-rabbit HRP (Amersham) for one hour at room temperature. The wells were washed three times and the extent of binding was then determined by OPD (o-phenylenediamine, Sigma) and absorbance measured at 450 nm.

B1: cyanovirin-N (CVN), recombinant, periplasmic expression in E. coli, hexa-histidine tagged (other)
chain: LGKFSQTCYNSAIQGSVLTSTCERTNGGYNTSSIDLNSVIENVDGSLKWQPSNFIETCRNTQLAGSSELAAECKTRAQQFVSTKINLDDHIANIDGTLKYEHHHHHH
notes: Lectin, 11 kDa
binding result [1]: binds

B2: L5 chimera (CVN-12p1): CVN, linker of five Gly4Ser repeats, 12p1, C-terminal hexa-histidine tag (other)
chain: LGKFSQTCYNSAIQGSVLTSTCERTNGGYNTSSIDLNSVIENVDGSLKWQPSNFIETCRNTQLAGSSELAAECKTRAQQFVSTKINLDDHIANIDGTLKYEGSGGGGSGGGGSGGGGSGGGGSGGGGSRINNIPWSEAMMHHHHHH
notes: Fusion protein, about 15 kDa; also called the chimera
IC50 (read off the curve) [2]: ~20 nM
IC50 [3]: 38 nM
EC50 (read off the curve) [4]: ~9 nM
IC50 (read off the curve) [5]: ~20 nM
IC50 (read off the curve) [6]: ~40 nM

B3: L5-S12p1: chimera of CVN, linker of five Gly4Ser repeats and scrambled (non-sense) 12p1 peptide (other)
chain: B2 chain with R129W, I130R, N131I, N132M, I133M, P134I, W135P, M139N, M140N
notes: check the entry type; also called scrambled chimera
EC50 (read off the curve) [7]: ~20 nM
